Substrate in the series: O=S(=O)(O)SSS(=O)(=O)O
Briefly: HPLC discontinuous assay, Michaelis-Menten. It is filed as biochemical, Metallosphaera cuprina. To be noted: pH 6.0, 95 °C, 1.15 µg enzyme, K2S4O6 varied.

B1: TTHMc (tetrathionate hydrolase, Mcup_1281) (Metallosphaera cuprina Ar-4) (protein)
chain: PSITQIVSQVITPIPQPIVRTYDIYNTTYFPYEVKVTYYPGNATSQNLGLPGSWLVTNGGQSHNAVVDTTCTELIQGVSWQQDFAHMAGAALIPLSAPENMLPGSNVMGTRSALVMLTQMVGEPLGVSLADNLLFVEEDSGPGSIFAVNPLNGQVVWYATGLASYAMNNPIVYNGIVYVTVGDVGFNFANFVHYENGQYSAIHRGMAYGAIYAFNASDGILLWMRFTMGEAMPAPAVYDGILAYSDGGGEFVGVNATTGQTLWMDSIPGLFDSMSSVNYYVMPNGTPLFVAGFTSLTEPFGLLVAVNGITGKMVWNASLPSPNKPFNTGMGDVPPAVDQSLGIVVQSTVANAEPNGTVDTMVLAVNATNGHVLWVTNLGRGYTPPAFKGAVPMIYNNTVFVGAPSLGTEFALNISTGRIIWQTRLNGISLPPTAPGGPRGSATIYDNLLWIAGGPNVYVLNPHNGDLLQQYYVGGRFGIVNPVIAGNTMYLTNSYGWVIAIPLYQVFPLFQYYTNS
notes: native enzyme purified from tetrathionate-grown M. cuprina Ar-4 cells (soluble fraction; DEAE, HIC, size exclusion, Q-Sepharose); no tag; SDS band about 54 kDa; no homodimer observed
Consider B1, for which the Michaelis constant (Km) came out at 350 µM.

Values taken from article PMC11818568, “Characterization of Tetrathionate Hydrolase from Acidothermophilic Sulfur-Oxidizing Archaeon Metallosphaera cuprina Ar-4” (International Journal of Molecular Sciences, 2025).
